Patent US11214614B2, “LTBP complex-specific inhibitors of TGFβ and uses thereof” (Scholar Rock, Inc., priority 2019, dated 2022)
Where a chain is given by its changes, count along the chain named.

B1: SR-AB34: cycle 3 light chain-optimized antibody, lineage SR-AB22; CDRs SEQ ID NO: 130-135 (antibody, V domains shown)
VH: QVQLVESGGGVVQPGRSLRLSCAASGFTFRSYVMHWVRQAPGKGLEWVAVISHEGSLKYYADSVKGRFTISRDNSKNTLYLQMNSLRAEDTAVYYCAVPRIAARRGGFGYWGQGTLVTVSS
VL: NFMLTQPHSVSESPGKTVTISCTRSSGNIDNNYVQWYQQRPGSSPTTVIYEDNQRPSGVPDRFSGSIDSSSNSASLTISGLKTEDEADYYCQSYDYDAQGVVFGGGTKLTVL
B2: SR-AB39: cycle 3 light chain-optimized antibody, lineage SR-AB22; CDRs SEQ ID NO: 148-153 (antibody, V domains shown)
VH: B1 VH
VL: B1 VL with N28L, N31D, N53A, Y96H, A98E
B3: SR-AB37: cycle 3 light chain-optimized antibody, lineage SR-AB22; CDRs SEQ ID NO: 136-141 (antibody, V domains shown)
VH: B1 VH
VL: B1 VL with N28L, N31D, Y96S, A98L, G100R
B4: SR-AB44: cycle 3 light chain-optimized antibody, lineage SR-AB23; CDRs SEQ ID NO: 178-183 (antibody, V domains shown)
VH: B1 VH with V98R
VL: B1 VL with S26H, N31D, Q54V, Y96S, A98N, G100L
B5: SR-AB45: cycle 3 light chain-optimized antibody, lineage SR-AB23; CDRs SEQ ID NO: 184-189 (antibody, V domains shown)
VH: B1 VH with V98R
VL: B1 VL with N28A, N31D, N53F, Y96D, A98L
B6: SR-AB38: cycle 3 light chain-optimized antibody, lineage SR-AB22; CDRs SEQ ID NO: 142-147 (antibody, V domains shown)
VH: B1 VH
VL: B1 VL with N28S, N53F, Q54I, Y96D, A98L
B7: SR-AB41: cycle 3 light chain-optimized antibody, lineage SR-AB23; CDRs SEQ ID NO: 160-165 (antibody, V domains shown)
VH: B1 VH with V98R
VL: B1 VL with A98N, G100A
B8: SR-AB41 Fab (antibody, V domains shown)
VH: B1 VH with V98R
VL: B1 VL with A98N, G100A
B9: SR-AB51 Fab (antibody, V domains shown)
VH: B1 VH with L57G, V98R, Y110T
VL: B1 VL with N31Y, Q54V, A98N, G100A
B10: SR-AB61 Fab (antibody, V domains shown)
VH: B1 VH with L57G, V98L, Y110T
VL: B1 VL with N31Y, Q54V, S93G, Y96W, A98T
B11: SR-AB46 Fab (antibody, V domains shown)
VH: B1 VH with L57G, V98R, Y110S
VL: B1 VL with N31Y, Q54V, Y96S, A98N, G100R
B12: SR-AB48 Fab (antibody, V domains shown)
VH: B1 VH with L57G, V98R, Y110S
VL: B1 VL with N31Y, Q54V, A98T
B13: LTBP-SR-AB42 HuFab (antibody, V domains shown)
VH: B1 VH with V98R
VL: B1 VL with A98T

target: T1, huLTBP1 proTGFβ1 (Homo sapiens, UniProt P01137+Q14766); experiment: Octet (BLI) binding, IgG captured on AHC tips, antigen at 100 nM; conditions: Table 9; cycle 3; IgG1-agly; 1:1 fit
T1 sequence (P01137 30-390): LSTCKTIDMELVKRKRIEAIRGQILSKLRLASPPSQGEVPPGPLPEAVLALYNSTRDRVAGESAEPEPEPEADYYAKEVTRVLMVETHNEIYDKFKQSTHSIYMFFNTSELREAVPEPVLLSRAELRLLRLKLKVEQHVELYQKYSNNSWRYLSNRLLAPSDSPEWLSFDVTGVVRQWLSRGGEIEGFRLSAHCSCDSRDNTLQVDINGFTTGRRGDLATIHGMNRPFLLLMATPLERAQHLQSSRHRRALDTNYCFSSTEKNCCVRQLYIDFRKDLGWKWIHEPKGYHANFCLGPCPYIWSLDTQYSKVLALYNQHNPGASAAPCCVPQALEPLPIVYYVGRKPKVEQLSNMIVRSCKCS
T1 sequence (Q14766 347-1721 limits assumed): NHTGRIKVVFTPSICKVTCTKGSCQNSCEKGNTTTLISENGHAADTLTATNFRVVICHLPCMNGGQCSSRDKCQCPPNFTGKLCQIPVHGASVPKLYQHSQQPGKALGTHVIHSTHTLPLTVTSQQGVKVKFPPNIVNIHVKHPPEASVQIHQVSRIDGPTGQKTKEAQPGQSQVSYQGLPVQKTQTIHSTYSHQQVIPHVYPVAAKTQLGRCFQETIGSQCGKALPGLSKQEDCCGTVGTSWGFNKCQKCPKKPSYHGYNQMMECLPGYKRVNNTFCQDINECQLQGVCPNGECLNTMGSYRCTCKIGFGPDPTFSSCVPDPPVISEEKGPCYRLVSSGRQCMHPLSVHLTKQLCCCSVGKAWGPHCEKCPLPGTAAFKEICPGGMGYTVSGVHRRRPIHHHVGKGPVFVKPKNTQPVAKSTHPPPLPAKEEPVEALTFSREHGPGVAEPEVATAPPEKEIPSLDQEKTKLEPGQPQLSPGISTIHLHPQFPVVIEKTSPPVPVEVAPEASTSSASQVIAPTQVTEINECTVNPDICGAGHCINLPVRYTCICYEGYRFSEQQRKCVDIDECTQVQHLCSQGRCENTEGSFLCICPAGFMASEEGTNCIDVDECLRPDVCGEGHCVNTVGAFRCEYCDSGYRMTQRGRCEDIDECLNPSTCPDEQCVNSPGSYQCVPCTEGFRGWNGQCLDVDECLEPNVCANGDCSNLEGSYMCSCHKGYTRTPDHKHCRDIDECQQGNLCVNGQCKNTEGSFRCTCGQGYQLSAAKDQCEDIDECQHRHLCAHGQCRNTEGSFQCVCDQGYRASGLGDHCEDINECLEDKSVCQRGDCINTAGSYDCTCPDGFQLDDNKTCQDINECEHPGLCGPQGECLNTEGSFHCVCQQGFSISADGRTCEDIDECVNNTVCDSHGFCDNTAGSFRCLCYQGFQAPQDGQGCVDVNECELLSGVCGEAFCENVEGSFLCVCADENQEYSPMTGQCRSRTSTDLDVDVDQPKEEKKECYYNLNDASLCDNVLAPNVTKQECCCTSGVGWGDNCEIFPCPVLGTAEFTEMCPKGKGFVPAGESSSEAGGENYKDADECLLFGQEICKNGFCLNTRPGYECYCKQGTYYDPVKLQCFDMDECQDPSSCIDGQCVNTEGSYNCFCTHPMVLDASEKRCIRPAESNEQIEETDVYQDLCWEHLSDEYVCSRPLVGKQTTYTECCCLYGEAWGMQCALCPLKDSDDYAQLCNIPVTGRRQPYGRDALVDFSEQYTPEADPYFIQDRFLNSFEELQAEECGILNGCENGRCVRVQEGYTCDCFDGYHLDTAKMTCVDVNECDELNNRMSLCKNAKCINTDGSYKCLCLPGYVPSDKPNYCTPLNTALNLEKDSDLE
Description: (§1) Suitable methods for in vitro binding assays to determine the parameters of binding kinetics include Bio-layer Interferometry (BLI)-based assays such as Octet, and surface plasmon resonance (SPR)-based assays, such as Biacore systems (see, for example: biophysics.bioc.cam.ac.uk/wp-content/uploads/2011/02/Biacore_assay_handbook.pdf).
(§2) The affinity of SR-AB10, SR-AB2 and SR-AB13 was measured by Octet assay. The protocol used to measure the affinity of the antibodies to the complexes provided herein is summarized below.
(§3) • 96 well black polypropylene plates • AHC Octet tips (anti-human IgG Fc capture tips) (FortdBio) • 10× kinetics buffer (FortdBio) (diluted to 1× in PBS) • reiner Bio-One 96-Well Half Area Microplates (VWR cat #82050-044) Procedure:
(§4) Notes: The volume within each well during an Octet experiment is 100 uL.
(§5) A shake speed of 1000 rpm is used for all assay steps.
(§6) Pre-Wet Tips: • Biosensors must be pre-wet in 1× kinetics buffer (lx KB) for at least 10 minutes before starting an experiment. This can be done inside the Octet or on the bench.
(§7) Loading: • Tips are baselined in 1× KB for 1 minute before loading. • AHC tips are loaded with antibody at a concentration of 1 μg/mL (˜7 nM) for 3 minutes. A limit is set so that loading will stop when any one sensor reaches a response of 1 nanometer. • Tips are baselined in buffer for 1 minute after loading. The antibody should not dissociate from the tips during this time.
(§8) Antigen Association: • TGFβ1 in complex with various presentation molecules was associated to the immobilized antibodies at a single concentration of 100 nM in 1× KB.
(§9) Antibody Dissociation: • Dissociation in 1×KB was performed for 3 minutes.
(§10) Data Analysis using ForteBio Data analysis software 8.2: • Processing: align Y axis to last 5 seconds of baseline, perform inter-step correction with align to dissociation, and perform Savitzky-Golay filtering. • Analysis: 1:1 fitting model is utilized. Fitting is local and full. […] Results:
(§11) LTBP complex-specific antibodies from the first round of affinity maturation/optimization (SR-AB14, SR-AB16, SR-AB17, SR-AB18, SR-AB19) were selected for a second round of affinity maturation/optimization (i.e., CDR-H3 mutagenesis as described herein) and particular progeny antibodies (SR-AB20, SR-AB21, SR-AB22, SR-AB23, SR-AB24, SR-AB25, SR-AB26, SR-AB27, SR-AB28, and SR-AB29) were assessed for their ability to bind various proTGFβl constructs. Binding affinities of the optimized antibodies were measured by Octet against human LTBP1-proTGFβI, human LTBP3-proTGFb1, mouse LTBP1-proTGFβ1, mouse LTBP3-proTGFb1, and GARP-proTGFβl complexes, essentially as described in Example 6. In brief, test antibodies were immobilized to the surface of anti-human Fc capture biosensors (AHC) (ForteBio®) and binding was then tested against the various TGFβ1 complexes at a single concentration of 100 nM to assess binding affinities. The antigens were allowed to associate for 3 minutes followed by a 5-minute dissociation. Kinetics buffer (ForteBio®) was used throughout the experiment, and KD was determined using a 1:1 fitting model for each antibody antigen pair.
Binding affinities of the optimized antibodies were measured by Octet against human LTBP1-proTGFβ1, human LTBP3-proTGFβ1, mouse LTBP1-proTGFβ1, mouse LTBP3-proTGFβ1, and GARP-proTGFβ1 complexes, essentially as described in Example 6. In brief, test antibodies were immobilized to the surface of anti-human Fc capture biosensors (AHC) (ForteBio®) and binding was then tested against the various TGFβ1 complexes at a single concentration of 100 nM to assess binding affinities. The antigens were allowed to associate for 3 minutes followed by a 5-minute dissociation. Kinetics buffer (ForteBio®) was used throughout the experiment, and KD was determined using a 1:1 fitting model for each antibody antigen pair. […]

Molecule | Hu LTBP1-proTGFβ1 Kon [M⁻¹ s⁻¹]
B1 | 259000
B2 | 292000
B3 | 360000
B4 | 280000
B5 | 310000
B6 | 327000
B7 | 203000

same assay, conditions: Table 9; cycle 3; IgG1-agly; 5-minute dissociation

Molecule | Hu LTBP1-proTGFβ1 Koff [s⁻¹]
B1 | 6e-05
B2 | 6e-05
B3 | 0.000118
B4 | 6e-05
B5 | 6e-05
B6 | 0.000117
B7 | 6e-05

target: huLTBP3 proTGFβ1 (Homo sapiens, UniProt P01137+Q9NS15); experiment: as above; conditions: Table 9; cycle 3; IgG1-agly; 1:1 fit
Sequence (P01137 30-390): as the sequence (P01137 30-390) above
Sequence (Q9NS15 44-1303): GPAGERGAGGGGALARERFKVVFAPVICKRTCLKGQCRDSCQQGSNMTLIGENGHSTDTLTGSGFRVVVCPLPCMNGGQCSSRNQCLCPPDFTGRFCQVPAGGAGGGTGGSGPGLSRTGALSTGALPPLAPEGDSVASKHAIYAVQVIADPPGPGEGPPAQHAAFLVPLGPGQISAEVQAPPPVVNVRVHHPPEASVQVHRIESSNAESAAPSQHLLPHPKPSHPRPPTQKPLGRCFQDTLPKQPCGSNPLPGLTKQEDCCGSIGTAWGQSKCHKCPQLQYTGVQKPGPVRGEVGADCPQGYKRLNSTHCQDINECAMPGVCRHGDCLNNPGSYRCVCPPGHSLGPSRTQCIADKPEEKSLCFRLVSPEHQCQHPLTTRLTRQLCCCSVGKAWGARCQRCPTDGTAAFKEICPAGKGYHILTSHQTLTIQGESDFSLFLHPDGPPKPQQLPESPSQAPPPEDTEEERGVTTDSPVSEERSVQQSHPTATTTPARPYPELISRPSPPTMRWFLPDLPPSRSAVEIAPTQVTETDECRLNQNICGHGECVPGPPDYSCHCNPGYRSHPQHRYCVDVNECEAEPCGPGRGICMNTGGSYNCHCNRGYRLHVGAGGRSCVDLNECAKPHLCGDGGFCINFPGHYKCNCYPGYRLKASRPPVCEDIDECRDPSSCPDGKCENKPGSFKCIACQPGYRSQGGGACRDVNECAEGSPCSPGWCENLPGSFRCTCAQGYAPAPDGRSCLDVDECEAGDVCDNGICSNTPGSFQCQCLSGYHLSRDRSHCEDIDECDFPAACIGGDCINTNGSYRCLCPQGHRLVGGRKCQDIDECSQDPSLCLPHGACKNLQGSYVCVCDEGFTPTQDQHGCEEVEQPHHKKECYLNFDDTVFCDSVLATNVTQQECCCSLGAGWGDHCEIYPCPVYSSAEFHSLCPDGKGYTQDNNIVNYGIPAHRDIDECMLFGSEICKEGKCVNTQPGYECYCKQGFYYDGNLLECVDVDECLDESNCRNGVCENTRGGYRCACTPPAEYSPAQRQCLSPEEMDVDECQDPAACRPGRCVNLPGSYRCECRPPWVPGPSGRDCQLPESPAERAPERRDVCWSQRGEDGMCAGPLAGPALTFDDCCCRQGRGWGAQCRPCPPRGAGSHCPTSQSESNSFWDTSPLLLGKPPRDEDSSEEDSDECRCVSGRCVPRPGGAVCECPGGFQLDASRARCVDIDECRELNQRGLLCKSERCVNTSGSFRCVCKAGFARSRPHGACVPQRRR
Description: as §1, §2, §3, §4, §5, §6, §7, §8, §9, §10, §11
Binding affinities of the optimized antibodies were measured by Octet against human LTBP1-proTGFβ1, human LTBP3-proTGFβ1, mouse LTBP1-proTGFβ1, mouse LTBP3-proTGFβ1, and GARP-proTGFβ1 complexes, essentially as described in Example 6. In brief, test antibodies were immobilized to the surface of anti-human Fc capture biosensors (AHC) (ForteBio®) and binding was then tested against the various TGFβ1 complexes at a single concentration of 100 nM to assess binding affinities. The antigens were allowed to associate for 3 minutes followed by a 5-minute dissociation. Kinetics buffer (ForteBio®) was used throughout the experiment, and KD was determined using a 1:1 fitting model for each antibody antigen pair.

Molecule | Hu LTBP3-proTGFβ1 Kon [M⁻¹ s⁻¹]
B1 | 372000
B2 | 441000
B3 | 545000
B4 | 410000
B5 | 491000
B6 | 502000
B7 | 255000

same assay, conditions: Table 9; cycle 3; IgG1-agly; 5-minute dissociation

Molecule | Hu LTBP3-proTGFβ1 Koff [s⁻¹]
B1 | 6.68e-05
B2 | 6e-05
B3 | 7.58e-05
B4 | 6e-05
B5 | 6e-05
B6 | 7.26e-05
B7 | 6e-05

system: proTGFβ1 presented by endogenous LTBP1/3 in LN229 cells; experiment: Endogenous LTBP caga assay: LN229 cells transfected with human proTGFβ1 only, CAGA12 luciferase reporter cells; assay type: cell-based; conditions: Table 20: protocol of Example 10 with Fabs (RefAb also as hIgG4), assay format not stated
Sequence (P01137 30-390): as the sequence (P01137 30-390) above

Molecule | IC50 [pM]
B8 | 486
B9 | 535
B10 | 470
B11 | 495
B12 | 523

target: T1, huLTBP1 proTGFβ1; experiment: SPR (Biacore 8K) monovalent binding kinetics of Fabs, biotinylated antigen captured; set-up: biotin (complex biotinylated); conditions: Table 27, Hu LTBP1-ProTGFβ1
Description: A Biacore 8K system was employed to determine the monovalent binding affinity and the kinetic parameters for antigen binding of test antibodies. Association and dissociation kinetics of Fab fragments SR-AB42-HuFab, SR-AB63-HuFab and SR-AB43-HuFab to antigen complexes were measured, and resulting ka, kd and KD are provided below. Briefly, the binding kinetics were evaluated by surface plasmon resonance using Biacore 8K (GE Healthcare). Biotinylated capture antigens were immobilized to the chip (10 nM, ˜200 RU loading). A Biotin CAPture sensor chip was used to capture the biotinylated antigens. Fabs at 10, 5, 2.5, 1.25, and 0.6 nM concentrations were injected over the captured antigens. 0 nM was used as a reference. Affinities of LTBP antibodies to GARP and LRRC33 were confirmed using higher concentration of Fabs (100, 50, 25, 12.5, 6.25 nM). 0 nM was used as a reference. Multi-cycle kinetics was employed where each analyte concentration was injected in a separate cycle and the sensor chip surface was regenerated after each cycle. All the assays were carried out in freshly prepared 1×HBS-EP+buffer (10 mM HEPES, 150 mM NaCl, 3 mM EDTA, 0.05% Tween20, pH 7.4). Data were fit globally to a 1:1 binding model to obtain the kinetic parameters. The sensorgram for 0 nM analyte concentration was used as reference.
• 96 well plates—Greinerbio-one REF 650101 • Microplate Foils—GE Healthcare—CAT #28-9758-16 • Biotin CAPture Kit GE Healthcare product number 28920233 • Biacore running buffer—supplied as a 20× solution, diluted in Milli-Q water, TEKnova CAT #H8022 Method:
These experiments were performed using the Biacore 8K using the method “multi-cycle kinetics/affinity using Biotin CAPture kit.”
Data collection rate was set to 10 Hz and the Biotin CAPture step was performed for 300 seconds with a flow rate of 2 μL/minute. The Biotin CAPture reagent was used after a 1:5 dilution in 1× Biacore running buffer. Biotinylated ligands (the various complexes of TGFβ1) were utilized at a concentration of 10 nM and were immobilized to the sensor chip for 180 seconds with a flow rate of 10 μL/minute. The analytes, which are each of the Fabs, were tested at 10, 5, 2.5, 1.25, and 0.625 nM with a 0 nM control included. Analyte contact time was 120 seconds and the dissociation time was 900 seconds. The regeneration cycle utilized was 120 seconds with a flow rate of 10 μL/minute.
The evaluation method used was “multi-cycle affinity using capture” and a 1:1 binding model was used. […] Global fits were utilized for every KD determination.

Molecule | Kd [pM]
B13 | 380
